According to patent US20200199241A1 (Chugai, published 2020):

T1: human FcγRIIa(R) (human, UniProt P12318 36-217)
T1 construct: also called FcgRIIaR; hFcgRIIa(R)
T1 chain: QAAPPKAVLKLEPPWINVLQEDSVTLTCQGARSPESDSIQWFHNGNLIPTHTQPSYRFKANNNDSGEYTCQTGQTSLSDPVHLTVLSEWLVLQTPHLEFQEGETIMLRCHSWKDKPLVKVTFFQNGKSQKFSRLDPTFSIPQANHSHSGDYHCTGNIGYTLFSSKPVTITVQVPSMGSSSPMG

T2: human FcγRIIa(H) (human, UniProt P12318 36-217)
T2 construct: also called FcgRIIaH; hFcgRIIa(H)
T2 sequence: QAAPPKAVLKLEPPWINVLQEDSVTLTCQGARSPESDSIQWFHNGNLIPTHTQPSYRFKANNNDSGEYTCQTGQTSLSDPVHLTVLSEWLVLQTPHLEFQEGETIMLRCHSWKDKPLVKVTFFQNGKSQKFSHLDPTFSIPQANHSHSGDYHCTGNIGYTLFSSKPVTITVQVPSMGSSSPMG

T3: human FcγRIIb (human, UniProt P31994 43-217, limits assumed)
T3 construct: also called FcgRIIb; hFcgRIIb
T3 sequence: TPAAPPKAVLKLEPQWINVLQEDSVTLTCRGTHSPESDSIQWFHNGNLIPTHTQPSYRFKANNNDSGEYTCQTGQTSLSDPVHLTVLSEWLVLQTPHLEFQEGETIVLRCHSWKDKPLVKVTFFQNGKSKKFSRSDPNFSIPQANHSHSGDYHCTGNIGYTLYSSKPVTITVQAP


What was measured:
Assay in all cases: SPR, captured antibody;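 note: antibody captured on a sensor chip, Fcγ receptor flowed over at 25 °C, receptor binding normalized to the captured antibody amount and expressed relative to the reference antibody ×100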
human FcγRIa = biological target: T4, human FcγRIa (human, UniProt P12314 16-292, limits assumed)
T4 construct: also called FcgRIa; hFcgRIa

human FcγRIIa(R) = biological target: T1, human FcγRIIa(R)
human FcγRIIa(H) = biological target: T2, human FcγRIIa(H)
human FcγRIIb = biological target: T3, human FcγRIIb

T4 sequence (P12314 16-292 limits assumed): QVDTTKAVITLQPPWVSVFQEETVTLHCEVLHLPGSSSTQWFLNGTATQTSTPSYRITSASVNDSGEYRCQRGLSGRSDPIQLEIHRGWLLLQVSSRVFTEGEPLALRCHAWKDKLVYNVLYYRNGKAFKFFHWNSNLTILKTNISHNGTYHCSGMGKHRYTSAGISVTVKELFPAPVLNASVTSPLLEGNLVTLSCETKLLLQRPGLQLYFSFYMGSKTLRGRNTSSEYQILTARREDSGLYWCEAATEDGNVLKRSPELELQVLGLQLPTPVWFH

Row | Binder | relative binding activity (human FcγRIa) | relative binding activity (human FcγRIIa(R)) | relative binding activity (human FcγRIIa(H)) | relative binding activity (human FcγRIIb)
1 | GpH7-B3 D270F/GpL16-k0 (antibody, human IgG1, B3 variant; copies: 2 + 2) heavy: not shown light: DIVMTQSPLSLPVTPGEPASISCQASESLVHSNRNTYLHWYLQKPGQSPQLLIYKVSNRFSGVPDRFSGSGSGTDFTLKISRVEAEDVGVYYCSQNTHVPPTFGQGTKVEIE | 88 % of GpH7-B3/GpL16-k0 | 5 % of GpH7-B3/GpL16-k0 | 62 % of GpH7-B3/GpL16-k0 | 5 % of GpH7-B3/GpL16-k0
2 | GpH7-B3 I332R/GpL16-k0 (antibody, human IgG1, B3 variant; copies: 2 + 2) heavy: not shown light: DIVMTQSPLSLPVTPGEPASISCQASESLVHSNRNTYLHWYLQKPGQSPQLLIYKVSNRFSGVPDRFSGSGSGTDFTLKISRVEAEDVGVYYCSQNTHVPPTFGQGTKVEIE | 95 % of GpH7-B3/GpL16-k0 | 28 % of GpH7-B3/GpL16-k0 | 70 % of GpH7-B3/GpL16-k0 | 23 % of GpH7-B3/GpL16-k0
3 | GpH7-B3 L328N/GpL16-k0 (antibody, human IgG1, B3 variant; copies: 2 + 2) heavy: not shown light: DIVMTQSPLSLPVTPGEPASISCQASESLVHSNRNTYLHWYLQKPGQSPQLLIYKVSNRFSGVPDRFSGSGSGTDFTLKISRVEAEDVGVYYCSQNTHVPPTFGQGTKVEIE | 98 % of GpH7-B3/GpL16-k0 | 25 % of GpH7-B3/GpL16-k0 | 34 % of GpH7-B3/GpL16-k0 | 78 % of GpH7-B3/GpL16-k0
4 | GpH7-B3 L328K/GpL16-k0 (antibody, human IgG1, B3 variant; copies: 2 + 2) heavy: not shown light: DIVMTQSPLSLPVTPGEPASISCQASESLVHSNRNTYLHWYLQKPGQSPQLLIYKVSNRFSGVPDRFSGSGSGTDFTLKISRVEAEDVGVYYCSQNTHVPPTFGQGTKVEIE | 30 % of GpH7-B3/GpL16-k0 | -17 % of GpH7-B3/GpL16-k0 | -2 % of GpH7-B3/GpL16-k0 | -4 % of GpH7-B3/GpL16-k0
5 | GpH7-B3 L328H/GpL16-k0 (antibody, human IgG1, B3 variant; copies: 2 + 2) heavy: not shown light: DIVMTQSPLSLPVTPGEPASISCQASESLVHSNRNTYLHWYLQKPGQSPQLLIYKVSNRFSGVPDRFSGSGSGTDFTLKISRVEAEDVGVYYCSQNTHVPPTFGQGTKVEIE | 95 % of GpH7-B3/GpL16-k0 | 76 % of GpH7-B3/GpL16-k0 | 47 % of GpH7-B3/GpL16-k0 | 82 % of GpH7-B3/GpL16-k0
6 | GpH7-B3 D270S/GpL16-k0 (antibody, human IgG1, B3 variant; copies: 2 + 2) heavy: not shown light: DIVMTQSPLSLPVTPGEPASISCQASESLVHSNRNTYLHWYLQKPGQSPQLLIYKVSNRFSGVPDRFSGSGSGTDFTLKISRVEAEDVGVYYCSQNTHVPPTFGQGTKVEIE | 73 % of GpH7-B3/GpL16-k0 | 0 % of GpH7-B3/GpL16-k0 | 49 % of GpH7-B3/GpL16-k0 | -1 % of GpH7-B3/GpL16-k0
7 | GpH7-B3 D270H/GpL16-k0 (antibody, human IgG1, B3 variant; copies: 2 + 2) heavy: not shown light: DIVMTQSPLSLPVTPGEPASISCQASESLVHSNRNTYLHWYLQKPGQSPQLLIYKVSNRFSGVPDRFSGSGSGTDFTLKISRVEAEDVGVYYCSQNTHVPPTFGQGTKVEIE | 70 % of GpH7-B3/GpL16-k0 | 0 % of GpH7-B3/GpL16-k0 | 53 % of GpH7-B3/GpL16-k0 | -2 % of GpH7-B3/GpL16-k0
8 | GpH7-B3 D270Y/GpL16-k0 (antibody, human IgG1, B3 variant; copies: 2 + 2) heavy: not shown light: DIVMTQSPLSLPVTPGEPASISCQASESLVHSNRNTYLHWYLQKPGQSPQLLIYKVSNRFSGVPDRFSGSGSGTDFTLKISRVEAEDVGVYYCSQNTHVPPTFGQGTKVEIE | 78 % of GpH7-B3/GpL16-k0 | -2 % of GpH7-B3/GpL16-k0 | 53 % of GpH7-B3/GpL16-k0 | -2 % of GpH7-B3/GpL16-k0
9 | GpH7-B3 D270T/GpL16-k0 (antibody, human IgG1, B3 variant; copies: 2 + 2) heavy: not shown light: DIVMTQSPLSLPVTPGEPASISCQASESLVHSNRNTYLHWYLQKPGQSPQLLIYKVSNRFSGVPDRFSGSGSGTDFTLKISRVEAEDVGVYYCSQNTHVPPTFGQGTKVEIE | 81 % of GpH7-B3/GpL16-k0 | 1 % of GpH7-B3/GpL16-k0 | 38 % of GpH7-B3/GpL16-k0 | -2 % of GpH7-B3/GpL16-k0
10 | GpH7-B3 D270V/GpL16-k0 (antibody, human IgG1, B3 variant; copies: 2 + 2) heavy: not shown light: DIVMTQSPLSLPVTPGEPASISCQASESLVHSNRNTYLHWYLQKPGQSPQLLIYKVSNRFSGVPDRFSGSGSGTDFTLKISRVEAEDVGVYYCSQNTHVPPTFGQGTKVEIE | 84 % of GpH7-B3/GpL16-k0 | 1 % of GpH7-B3/GpL16-k0 | 37 % of GpH7-B3/GpL16-k0 | 3 % of GpH7-B3/GpL16-k0
11 | GpH7-B3 L328G/GpL16-k0 (antibody, human IgG1, B3 variant; copies: 2 + 2) heavy: not shown light: DIVMTQSPLSLPVTPGEPASISCQASESLVHSNRNTYLHWYLQKPGQSPQLLIYKVSNRFSGVPDRFSGSGSGTDFTLKISRVEAEDVGVYYCSQNTHVPPTFGQGTKVEIE | 92 % of GpH7-B3/GpL16-k0 | 66 % of GpH7-B3/GpL16-k0 | 52 % of GpH7-B3/GpL16-k0 | 62 % of GpH7-B3/GpL16-k0
12 | GpH7-B3 L328R/GpL16-k0 (antibody, human IgG1, B3 variant; copies: 2 + 2) heavy: not shown light: DIVMTQSPLSLPVTPGEPASISCQASESLVHSNRNTYLHWYLQKPGQSPQLLIYKVSNRFSGVPDRFSGSGSGTDFTLKISRVEAEDVGVYYCSQNTHVPPTFGQGTKVEIE | 26 % of GpH7-B3/GpL16-k0 | -13 % of GpH7-B3/GpL16-k0 | -1 % of GpH7-B3/GpL16-k0 | -3 % of GpH7-B3/GpL16-k0
13 | GpH7-B3 D270N/GpL16-k0 (antibody, human IgG1, B3 variant; copies: 2 + 2) heavy: not shown light: DIVMTQSPLSLPVTPGEPASISCQASESLVHSNRNTYLHWYLQKPGQSPQLLIYKVSNRFSGVPDRFSGSGSGTDFTLKISRVEAEDVGVYYCSQNTHVPPTFGQGTKVEIE | 68 % of GpH7-B3/GpL16-k0 | -1 % of GpH7-B3/GpL16-k0 | 34 % of GpH7-B3/GpL16-k0 | -2 % of GpH7-B3/GpL16-k0
14 | GpH7-B3 L328P/GpL16-k0 (antibody, human IgG1, B3 variant; copies: 2 + 2) heavy: not shown light: DIVMTQSPLSLPVTPGEPASISCQASESLVHSNRNTYLHWYLQKPGQSPQLLIYKVSNRFSGVPDRFSGSGSGTDFTLKISRVEAEDVGVYYCSQNTHVPPTFGQGTKVEIE | 78 % of GpH7-B3/GpL16-k0 | 15 % of GpH7-B3/GpL16-k0 | 8 % of GpH7-B3/GpL16-k0 | 15 % of GpH7-B3/GpL16-k0
15 | GpH7-B3 D270I/GpL16-k0 (antibody, human IgG1, B3 variant; copies: 2 + 2) heavy: not shown light: DIVMTQSPLSLPVTPGEPASISCQASESLVHSNRNTYLHWYLQKPGQSPQLLIYKVSNRFSGVPDRFSGSGSGTDFTLKISRVEAEDVGVYYCSQNTHVPPTFGQGTKVEIE | 88 % of GpH7-B3/GpL16-k0 | 3 % of GpH7-B3/GpL16-k0 | 43 % of GpH7-B3/GpL16-k0 | 1 % of GpH7-B3/GpL16-k0
16 | GpH7-B3 D270L/GpL16-k0 (antibody, human IgG1, B3 variant; copies: 2 + 2) heavy: not shown light: DIVMTQSPLSLPVTPGEPASISCQASESLVHSNRNTYLHWYLQKPGQSPQLLIYKVSNRFSGVPDRFSGSGSGTDFTLKISRVEAEDVGVYYCSQNTHVPPTFGQGTKVEIE | 90 % of GpH7-B3/GpL16-k0 | 6 % of GpH7-B3/GpL16-k0 | 61 % of GpH7-B3/GpL16-k0 | 3 % of GpH7-B3/GpL16-k0
17 | GpH7-B3 I332K/GpL16-k0 (antibody, human IgG1, B3 variant; copies: 2 + 2) heavy: not shown light: DIVMTQSPLSLPVTPGEPASISCQASESLVHSNRNTYLHWYLQKPGQSPQLLIYKVSNRFSGVPDRFSGSGSGTDFTLKISRVEAEDVGVYYCSQNTHVPPTFGQGTKVEIE | 77 % of GpH7-B3/GpL16-k0 | 12 % of GpH7-B3/GpL16-k0 | 59 % of GpH7-B3/GpL16-k0 | 27 % of GpH7-B3/GpL16-k0
18 | GpH7-B3 D270Q/GpL16-k0 (antibody, human IgG1, B3 variant; copies: 2 + 2) heavy: not shown light: DIVMTQSPLSLPVTPGEPASISCQASESLVHSNRNTYLHWYLQKPGQSPQLLIYKVSNRFSGVPDRFSGSGSGTDFTLKISRVEAEDVGVYYCSQNTHVPPTFGQGTKVEIE | 82 % of GpH7-B3/GpL16-k0 | 2 % of GpH7-B3/GpL16-k0 | 78 % of GpH7-B3/GpL16-k0 | 0 % of GpH7-B3/GpL16-k0
19 | GpH7-B3 D270M/GpL16-k0 (antibody, human IgG1, B3 variant; copies: 2 + 2) heavy: not shown light: DIVMTQSPLSLPVTPGEPASISCQASESLVHSNRNTYLHWYLQKPGQSPQLLIYKVSNRFSGVPDRFSGSGSGTDFTLKISRVEAEDVGVYYCSQNTHVPPTFGQGTKVEIE | 90 % of GpH7-B3/GpL16-k0 | 7 % of GpH7-B3/GpL16-k0 | 57 % of GpH7-B3/GpL16-k0 | 6 % of GpH7-B3/GpL16-k0
20 | GpH7-B3 I332P/GpL16-k0 (antibody, human IgG1, B3 variant; copies: 2 + 2) heavy: not shown light: DIVMTQSPLSLPVTPGEPASISCQASESLVHSNRNTYLHWYLQKPGQSPQLLIYKVSNRFSGVPDRFSGSGSGTDFTLKISRVEAEDVGVYYCSQNTHVPPTFGQGTKVEIE | 100 % of GpH7-B3/GpL16-k0 | 34 % of GpH7-B3/GpL16-k0 | 26 % of GpH7-B3/GpL16-k0 | 41 % of GpH7-B3/GpL16-k0
